Data published in the supplement of paper PMC10567573.

B1: TEKT4 (parent)
chain: SEVEELNMSLTALREKLLEAEQSL
B2: ZNF8 (parent)
chain: SLGRHKRTHTGEKPYTCSVCGKSF

Variants of: B1
Assay: protein stability index of a GFP-peptide fusion (GPS, HEK-293T) (PSI 1-6); higher = more stable
Conditions: c terminus: a fixed tail appended
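Also: lentivirally expressed fusions sorted by FACS into six bins by GFP to DsRed ratio, PSI derived from sequencing read proportions per bin multiplied by bin number.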

Protein stability index of substitutions, site by site:
S1: A 3.43 | F 2.31 | D 3.64 | G 3.25 | H 3.19 | E 3.28 | C 2.63

Variants of: B2
Assay: as above
Conditions: c terminus: a fixed tail appended

Protein stability index: each site, then its substitutions
T10: H 2.98 | Q 3.12 | E 2.86 | W 2.33 | I 2.77 | P 2.56 | R 2.32 | A 2.84 | G 3.3 | Y 2.18 | M 2.74 | S 3.28 | N 3.44 | C 2.08 | L 2.19 | F 1.88 | V 2.09 | K 2.84 | D 3.47
S18: C 2.63 | Q 3.16 | H 2.26 | V 2.83 | T 2.68 | M 2.58 | N 2.02 | K 2.98 | Y 2.71 | A 2.94 | D 2.76 | W 2.84 | F 2.08 | P 3 | I 2.34 | L 2.44 | R 2.54 | G 2.83 | E 3.38
K22: I 2.05 | E 3.66 | R 3.09 | Q 2.47 | G 2.19 | N 2.87 | H 3.12 | P 3.29 | S 2.34 | Y 3.41 | V 2.48 | M 2.07 | C 2.54 | L 2.36 | T 3.37 | F 2.54 | D 3.01 | A 2.82
V19: W 1.88 | G 2.7 | N 3.47 | Q 3.45 | I 2.79 | A 2.36 | S 3.04 | C 3.68 | K 2.93 | R 3.15 | D 3.5 | L 2.29 | E 2.42 | P 3.06 | F 2.67 | H 3.06 | M 2.7 | Y 2.64 | T 2.75
T16: E 2.98 | N 2.97 | F 3.04 | W 2.33 | L 2.25 | V 3.01 | H 2.77 | M 2.85 | D 2.81 | K 2.68 | S 2.51 | Y 2.61 | P 2.19 | Q 3.14 | R 2.89 | A 2.95 | I 2.75 | C 2.31
H9: D 2.79 | V 2.47 | K 3.13 | G 2.16 | R 2.94 | Q 3.98 | A 2.82 | T 2.78 | E 3.06 | F 2.09 | S 2.66 | P 2.96 | Y 3.15 | C 2.59 | L 2.18 | M 2.59 | N 2.67 | I 2.84 | W 2.83
T8: N 2.44 | F 2.6 | K 3.17 | L 2.61 | D 3.45 | P 2.64 | Q 3.17 | G 2.68 | W 2.2 | S 3.02 | V 2.68 | E 2.97 | Y 2.65 | R 2.83 | A 3.09 | H 3.05 | C 2.45 | I 1.91 | M 1.9
R7: V 3.37 | M 2.44 | T 2.32 | Y 2.96 | P 2.98 | N 3.38 | S 3.34 | W 2.8 | Q 2.98
Y15: D 2.46 | V 2.44 | T 2.3 | M 2.52 | K 2.72 | N 2.33 | W 2.63 | R 2.61 | L 2.44 | Q 2.33 | F 2.36 | I 2.59 | S 2.9 | G 2.45 | E 2.89 | C 3.79 | H 2.34 | P 2.29 | A 2.58
C17: F 2.4 | T 3.19 | K 3.65 | V 3.58 | D 4.3 | R 2.75 | E 3.77 | P 3.17 | Y 2.77 | M 2.96 | H 3.32 | Q 3.76 | A 3.81 | N 3.78 | G 3.49 | I 2.38 | L 2.33 | S 3.3 | W 2.81
C20: W 2.4 | F 2.47 | Y 2.94 | M 3.36 | P 3.36 | K 3.23 | D 3.99 | N 3.51 | E 3.78 | T 3.44 | S 4 | L 2.45 | V 3.13 | G 3.18 | R 2.98 | Q 3.42 | A 3.05 | H 2.79 | I 2.94
K13: F 2.2 | I 2.65 | W 3.06 | T 2.92 | C 2.88 | R 2.39 | Q 2.71 | N 2.48 | D 2.34 | H 2.96 | G 2.61 | P 2.71 | M 2.4 | L 1.99 | Y 2.31 | E 2.39 | S 2.94 | A 3.72
F24: V 3.27 | L 3.02 | S 3.44 | A 3.1 | K 3.62 | P 3.5 | Y 2.45 | Q 2.69 | M 2.85 | W 2.93 | I 2.92 | R 2.92 | T 2.24 | D 3.83 | H 4.04 | C 4.13 | N 3.27
G11: D 3.24 | Y 2.94 | K 2.9 | I 2.07 | S 2.79 | R 2.53 | W 3.56 | Q 2.53 | T 3.09 | A 2.17 | E 2.51 | V 1.98 | M 2.41 | P 2.73 | L 2.42 | H 3.29 | F 2.4 | C 2.77 | N 2.3
S23: Q 2.25 | E 3.03 | H 3.12 | M 2.18 | T 3.32 | I 2.8 | K 3.3 | G 2.94 | R 3.2 | F 2.38 | V 1.95 | D 3.3 | N 2.9 | P 2.39 | C 2.48 | Y 2.79 | W 2.12 | A 2.5 | L 2.69
P14: V 3.18 | A 2.23 | H 2.89 | R 2.63 | L 3.73 | E 2.8 | F 3.14 | T 3.77 | M 2.72 | K 2.83 | Q 3 | I 3.47 | S 3.3 | Y 3 | C 2.73 | D 3.11 | G 2.44 | N 3.21 | W 3.82
G21: T 3.14 | A 2.35 | I 2.01 | E 2.1 | R 3.03 | K 3.36 | M 2.71 | V 2.17 | D 3.11 | S 2.94 | H 2.78 | W 1.88 | P 3.12 | C 2 | Y 1.92 | L 1.9 | F 2.5 | Q 2.59 | N 2.98
E12: G 2.79 | H 2.52 | T 2.24 | A 2.7 | C 2.24 | Q 2.77 | V 2.11 | Y 3.15 | R 3.19 | K 2.79 | W 2.2 | I 2.53 | S 2.64 | M 2.41 | N 3.1 | P 3.28 | D 2.64 | F 1.74 | L 2.37
